Experimental data from US20090042291A1 (published 2009).

Tests used:
A327D = test: Biacore
S298D = test: Biacore
S267E/L328Y = test: Biacore
L328F = test: Biacore
P329E = test: Biacore
S267E/N325L = test: Biacore
H268Q = test: Biacore
H268D = test: Biacore
H268E = test: Biacore
A327N = test: Biacore
H268N = test: Biacore
A327Q = test: Biacore
A327G = test: Biacore
[1] = molecular target: human V158 FcγRIIIa, extracellular region with C-terminal 6xHis-tag and GST-tag (human, UniProt P08637 17-208); test: AlphaScreen competition
FcγRI = molecular target: T1, FcγRI (human, UniProt P12314 16-288); test: Biacore
T1 chain: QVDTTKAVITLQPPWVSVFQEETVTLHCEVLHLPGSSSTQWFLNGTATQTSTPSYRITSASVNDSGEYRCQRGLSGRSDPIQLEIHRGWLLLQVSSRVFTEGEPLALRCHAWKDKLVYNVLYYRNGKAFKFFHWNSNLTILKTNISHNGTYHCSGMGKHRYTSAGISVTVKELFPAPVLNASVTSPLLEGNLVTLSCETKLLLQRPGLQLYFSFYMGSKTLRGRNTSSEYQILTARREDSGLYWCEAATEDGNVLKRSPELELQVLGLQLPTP

FcγRIIb = molecular target: T2, FcγRIIb (human, UniProt P31994 46-217); test: Biacore
T2 chain: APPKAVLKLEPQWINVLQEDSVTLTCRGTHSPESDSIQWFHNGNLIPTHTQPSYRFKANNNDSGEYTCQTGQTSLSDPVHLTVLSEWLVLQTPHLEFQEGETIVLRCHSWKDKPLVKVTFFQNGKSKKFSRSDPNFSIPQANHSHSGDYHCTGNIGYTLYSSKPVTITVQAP

B1: FcγRIIaR (receptor)
chain: QAAAPPKAVLKLEPPWINVLQEDSVTLTCQGARSPESDSIQWFHNGNLIPTHTQPSYRFKANNNDSGEYTCQTGQTSLSDPVHLTVLSEWLVLQTPHLEFQEGETIMLRCHSWKDKPLVKVTFFQNGKSQKFSRLDPTFSIPQANHSHSGDYHCTGNIGYTLFSSKPVTITVQVPSMGSSSPMG
A327D
  Kd: 536 nM
S298D
  Kd: 592 nM
S267E/L328Y
  Kd: 7.06 nM
L328F
  Kd: 166 nM
P329E
  Kd: 10000 nM
S267E/N325L
  Kd: 20.7 nM
H268Q
  Kd: 544 nM
H268D
  Kd: 205 nM
H268E
  Kd: 269 nM
A327N
  Kd: 1410 nM
H268N
  Kd: 481 nM
A327Q
  Kd: 1350 nM
A327G
  Kd: 2690 nM

B2: alemtuzumab S239D (antibody)
chain 1: not shown
chain 2: not shown
[1]
  IC50: 0.4 nM

B3: S267G (antibody)
chain 1: not shown
chain 2: DIVMTQSPATLSLSPGERATLSCRSSKSLQNVNGNTYLYWFQQKPGQSPQLLIYRMSNLNSGVPDRFSGSGSGTEFTLTISSLEPEDFAVYYCMQHLEYPITFGAGTKLEIKRTVAAPSVFIFPPSDEQLKSGTASVVCLLNNFYPREAKVQWKVDNALQSGNSQESVTEQDSKDSTYSLSSTLTLSKADYEKHKVYACEVTHQGLSSPVTKSFNRGEC
FcγRI
  Kd: 0.626 nM
FcγRIIb
  Kd: 1450 nM

B4: alemtuzumab, wild type, expressed in 293T cells (antibody)
chain 1: not shown
chain 2: not shown
[1]
  IC50: 4.6 nM
